# Data from paper PMC11199634.
# pKd: −log10 of the molar value.
# Experiments:
# [1] = target: SDS22-KR7A (purified) (human) (UniProt Q15435); assay: ITC; 5 μM SDS22 in the cell titrated with 50 μM His-I3 (20 injections), 22 °C, MicroCal iTC200; binding curves not saturated
# LgBiT-PP1α = LgBiT-PP1α (UniProt P62136); assay: lysate-based split-luciferase complementation; details: mixed HEK293T lysates; signals normalized for the same expression level; n = 3; parent: est. 100; read off a plot
# EGFP-I3-DE4A (human) = EGFP-I3-DE4A (human) (UniProt O60927); assay: co-IP; EGFP-trap (anti-EGFP nanobodies on agarose, 2 h, 4 °C) of transiently expressed EGFP fusions from HEK293T lysates (20 mM Tris pH 7.9, 0.3 M NaCl, 0.5% Triton X-100); endogenous partners by immunoblot
# Sequence of EGFP-I3-DE4A (human) (O60927 whole entry, the tested form may be a part): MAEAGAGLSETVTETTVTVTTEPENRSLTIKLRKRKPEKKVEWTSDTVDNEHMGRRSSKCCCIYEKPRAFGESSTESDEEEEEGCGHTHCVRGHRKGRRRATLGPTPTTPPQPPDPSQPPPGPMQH
# Sequence of LgBiT-PP1α (P62136 whole entry, the tested form may be a part): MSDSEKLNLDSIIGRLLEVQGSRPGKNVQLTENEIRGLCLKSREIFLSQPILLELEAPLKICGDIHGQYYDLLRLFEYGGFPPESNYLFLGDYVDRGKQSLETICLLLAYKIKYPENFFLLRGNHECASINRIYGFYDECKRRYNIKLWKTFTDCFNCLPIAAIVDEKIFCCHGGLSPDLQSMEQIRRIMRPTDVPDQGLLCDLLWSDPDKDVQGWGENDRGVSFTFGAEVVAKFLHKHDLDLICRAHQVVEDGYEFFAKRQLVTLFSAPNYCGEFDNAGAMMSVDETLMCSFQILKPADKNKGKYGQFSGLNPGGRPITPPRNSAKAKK
# Sequence of RM-SmBiT (Q69YH5 whole entry, change not shown): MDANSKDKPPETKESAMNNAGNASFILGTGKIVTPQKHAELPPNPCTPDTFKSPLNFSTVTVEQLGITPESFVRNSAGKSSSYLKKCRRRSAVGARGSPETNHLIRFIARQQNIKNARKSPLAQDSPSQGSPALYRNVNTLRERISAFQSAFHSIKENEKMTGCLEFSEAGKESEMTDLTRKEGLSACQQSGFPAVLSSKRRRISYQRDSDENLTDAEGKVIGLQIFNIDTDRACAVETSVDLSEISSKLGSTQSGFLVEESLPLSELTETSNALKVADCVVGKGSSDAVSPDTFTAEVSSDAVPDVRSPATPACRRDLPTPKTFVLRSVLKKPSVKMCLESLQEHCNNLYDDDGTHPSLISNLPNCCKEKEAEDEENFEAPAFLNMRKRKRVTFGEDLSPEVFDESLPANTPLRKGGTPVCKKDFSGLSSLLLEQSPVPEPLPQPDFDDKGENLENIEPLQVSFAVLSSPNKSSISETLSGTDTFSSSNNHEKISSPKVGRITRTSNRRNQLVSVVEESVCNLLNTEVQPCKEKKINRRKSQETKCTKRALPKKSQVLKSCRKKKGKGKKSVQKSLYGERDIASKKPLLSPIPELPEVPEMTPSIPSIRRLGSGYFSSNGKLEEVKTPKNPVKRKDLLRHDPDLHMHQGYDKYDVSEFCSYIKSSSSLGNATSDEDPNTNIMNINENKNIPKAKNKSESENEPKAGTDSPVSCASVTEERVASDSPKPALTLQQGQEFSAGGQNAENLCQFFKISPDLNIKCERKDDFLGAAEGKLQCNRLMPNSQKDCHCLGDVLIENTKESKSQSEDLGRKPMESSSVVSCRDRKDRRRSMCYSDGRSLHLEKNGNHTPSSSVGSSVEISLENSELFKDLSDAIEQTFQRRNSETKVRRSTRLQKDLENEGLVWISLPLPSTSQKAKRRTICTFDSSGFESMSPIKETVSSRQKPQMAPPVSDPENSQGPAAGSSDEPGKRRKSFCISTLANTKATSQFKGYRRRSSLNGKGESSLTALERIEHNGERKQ
# Sequence of His-I3 (O60927 whole entry): as the sequence (O60927 whole entry, the tested form may be a part) above
# Sequence of I3^WT-SmBiT (O60927 whole entry, change not shown): as the sequence (O60927 whole entry, the tested form may be a part) above
# Sequence of PP1 (endogenous, HEK293T) (P62136 whole entry): as the sequence (P62136 whole entry, the tested form may be a part) above
# Sequence of I2-SmBiT (P41236 whole entry, change not shown): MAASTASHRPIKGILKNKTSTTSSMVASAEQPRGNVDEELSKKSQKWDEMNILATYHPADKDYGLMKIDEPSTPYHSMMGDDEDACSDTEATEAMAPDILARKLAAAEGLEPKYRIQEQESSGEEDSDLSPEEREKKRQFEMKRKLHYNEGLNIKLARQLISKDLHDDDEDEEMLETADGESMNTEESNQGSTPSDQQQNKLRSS
# Sequence of SDS22-KR7A (purified) (human) (Q15435 whole entry): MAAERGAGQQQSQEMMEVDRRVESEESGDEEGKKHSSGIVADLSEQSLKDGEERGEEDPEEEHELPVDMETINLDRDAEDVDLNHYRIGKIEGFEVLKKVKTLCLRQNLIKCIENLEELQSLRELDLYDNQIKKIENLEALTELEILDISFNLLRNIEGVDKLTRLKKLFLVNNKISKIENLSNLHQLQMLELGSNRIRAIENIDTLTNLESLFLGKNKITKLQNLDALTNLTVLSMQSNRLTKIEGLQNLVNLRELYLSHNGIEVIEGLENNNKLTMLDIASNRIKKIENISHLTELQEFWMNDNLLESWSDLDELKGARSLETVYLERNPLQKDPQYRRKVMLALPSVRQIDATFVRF
substance,measurement,setting,value
His-I3 (from UniProt O60927 1-126) (natural protein),pKd,[1],3.89
I2-SmBiT (from UniProt P41236) RATA,percent of parent (% of RIPPOs^WT-SmBiT),LgBiT-PP1α,32
I3^WT-SmBiT (from UniProt O60927) RATA,percent of parent (% of RIPPOs^WT-SmBiT),LgBiT-PP1α,6
"PP1 (endogenous, HEK293T) (from UniProt P62136 1-330) (enzyme)",percent decrease of binding against EGFP-I3-WT,EGFP-I3-DE4A (human),35%
RM-SmBiT (from UniProt Q69YH5) RATA,percent of parent (% of RIPPOs^WT-SmBiT),LgBiT-PP1α,10
